Reference: patent US20260069690A1

Molecular target: S100A11 Q22R (mutant 25mer, peptide 60 / P60; residues not given) peptide on HLA-DR (human)
Assay: MSGV1 TCR-transduced healthy-donor peripheral blood T cells with B cells pulsed with the Q22R peptide. Secretion was inhibited by anti-HLA-DR/-DP/-DQ but not by anti-HLA-ABC. TNFa and Granzyme B were also released. The TIL clone released IFNg, TNFa and Granzyme B, which anti-HLA-DR blocked but anti-HLA-DP and anti-HLA-DQ did not.; full-length, on cells
Details: chains Valpha:Vbeta

- IFNg released: > 15000 pg/mL
B1: S100A11^Q22R-specific TCR (protein)
chain 1: SQKIEQNSEALNIQEGKTATLTCNYTNYSPAYLQWYRQDPGRGPVFLLLIRENEKEKRKERLKVTFDTTLKQSLFHITASQPADSATYLCALDFTGGGNKLTFGTGTQLKVEL
chain 2: NAGVMQNPRHLVRRRGQEARLRCSPMKGHSHVYWYRQLPEEGLKFMVYLQKENIIDESGMPKERFSAEFPKEGPSILRIQQVVRGDSAAYFCASSPSTGGIGDTQYFGPGTRLTVL
